From US20260125443A1 (APRILBIO, published 2026)
Values belong to the binder of their own block, whether it stands above or below them.

Assays:
[1] = target: T1, human follicle stimulating hormone receptor (human, UniProt P23945 18-695); assay: flow cytometry on human FSHR stable HEK293 cells, detection with goat anti-human IgG Fd-FITC
T1 construct: whole, on cells; also called human FSHR; human FSH receptor
T1 sequence (looked up): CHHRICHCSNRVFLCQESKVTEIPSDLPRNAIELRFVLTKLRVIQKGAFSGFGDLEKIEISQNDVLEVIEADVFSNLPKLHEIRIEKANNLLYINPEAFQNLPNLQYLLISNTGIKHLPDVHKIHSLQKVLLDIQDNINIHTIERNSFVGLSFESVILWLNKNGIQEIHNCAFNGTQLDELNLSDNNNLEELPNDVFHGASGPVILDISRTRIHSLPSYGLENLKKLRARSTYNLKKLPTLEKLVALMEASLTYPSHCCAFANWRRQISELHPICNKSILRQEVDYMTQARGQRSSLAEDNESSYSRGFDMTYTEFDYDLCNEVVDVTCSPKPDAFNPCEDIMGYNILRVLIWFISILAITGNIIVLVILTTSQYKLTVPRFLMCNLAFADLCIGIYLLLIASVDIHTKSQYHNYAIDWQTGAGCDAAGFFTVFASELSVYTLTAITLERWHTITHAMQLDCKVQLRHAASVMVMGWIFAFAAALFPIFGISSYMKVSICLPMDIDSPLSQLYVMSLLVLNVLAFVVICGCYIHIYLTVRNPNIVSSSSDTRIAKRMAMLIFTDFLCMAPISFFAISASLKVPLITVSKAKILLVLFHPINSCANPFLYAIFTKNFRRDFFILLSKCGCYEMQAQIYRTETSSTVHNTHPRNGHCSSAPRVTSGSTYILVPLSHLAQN
Procedure: By using a human FSHR stable cell line (HEK293, Creative Biogene, USA) expressing human FSH receptors on the surface, the binding between the SAFA-FSH protein and the FSH receptors was analyzed with a CytoFLEX flow cytometer (Beckman Coulter, USA).
Subsequently, the binding between the SAFA-FSH protein and the human FSHR was confirmed by using the human FSHR stable cell line in which the expression of human FSHR was confirmed. Specifically, the human FSHR stable cells were dissolved in MACS buffer (PBS containing 0.5% BSA and 2 mM EDTA) at a concentration of 1×10⁶ cells/ml, and then added in an amount of 100 μl (1.0×10⁵ cells/test) to a 1.7 ml tube. The cells were then centrifuged at 500×g at 4° C. for 5 minutes. After removing the supernatant from the 1.7 ml tube, 100 μl each of the SAFA-FSH protein and the SL335 fragment that were diluted with MACS buffer at a concentration from 1,000 nM to 0.064 nM was added to the same tube to proceed a reaction at 4° C. for 30 minutes. After 500 μl of MACS buffer was added to the tube and the cells were centrifuged at 500×g at 4° C. for 5 minutes, the supernatant was removed therefrom to remove unbound proteins. 100 μl of goat anti-human IgG Fd-FITC (Southern Biotech, USA) antibody diluted with MACS buffer at a ratio of 1:500 was added to the tube to proceed a reaction at 4° C. for 30 minutes. […]

[2] = target: T2, human serum albumin (human, UniProt P02768 25-609); assay: BLI (Octet Red), HSA immobilised on AR2G sensor, pH 7.4
T2 construct: Immobilised on an AR2G biosensor; also called HSA; human serum albumin (Sigma)
Procedure: (§1) By using Bio-Layer Interferometry (BLI) and Octet® BLI systems (Octet® Red, Sartorius, Germany), the binding ability of the SAFA-FSH protein to human serum albumin was analyzed. On an AR2G biosensor chip (Sartorius, Germany), human serum albumin (Sigma) was immobilized at a concentration of 30 μg/mL with a 10 mM acetate buffer pH 5.0, and the SAFA-FSH protein was added thereto at concentrations of 6.25 nM, 3.125 nM, 1.56 nM, and 0.78 nM (association: 600 s, dissociation: 900 s), so as to confirm the binding ability between the two under conditions of pH 7.4 or pH 6.0 conditions.

[3] = target: T2, human serum albumin; assay: BLI (Octet Red), HSA immobilised on AR2G sensor, pH 6.0
Procedure: as §1

T2 sequence (P02768 25-609 limits assumed): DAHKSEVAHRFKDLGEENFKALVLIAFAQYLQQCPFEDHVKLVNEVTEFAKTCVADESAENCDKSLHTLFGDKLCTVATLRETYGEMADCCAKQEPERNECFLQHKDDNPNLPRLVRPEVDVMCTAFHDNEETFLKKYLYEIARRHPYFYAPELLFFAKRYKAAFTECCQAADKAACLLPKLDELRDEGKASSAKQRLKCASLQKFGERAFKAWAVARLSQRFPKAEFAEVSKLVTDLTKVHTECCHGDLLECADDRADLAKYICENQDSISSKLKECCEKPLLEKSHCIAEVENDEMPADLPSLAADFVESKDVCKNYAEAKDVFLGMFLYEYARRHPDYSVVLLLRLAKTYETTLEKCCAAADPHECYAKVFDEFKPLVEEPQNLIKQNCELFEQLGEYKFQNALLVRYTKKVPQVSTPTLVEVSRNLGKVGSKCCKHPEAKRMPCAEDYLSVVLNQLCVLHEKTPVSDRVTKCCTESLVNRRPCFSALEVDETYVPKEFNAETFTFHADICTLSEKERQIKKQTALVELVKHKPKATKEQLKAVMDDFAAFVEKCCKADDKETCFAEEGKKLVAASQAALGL

binding result [1]: no binding (tested: 1000 nM)
B1: SL335 fragment (Fab, V domains shown)
VH: QVQLVQSGGGPVKPGGSLRLSCAASGFMFRAYSMNWVRQAPGKGLEWVSSISSSGRYIHYADSVKGRFTISRDNAKNSLYLQMNSLRAEDTAVYYCARETVMAGKALDYWGQGTLVTVSS
VL: DIVLTQSPGTLSLSPGETATLSCRASQSVGSNLAWYQQKPGQAPRLLIYGASTGATGVPARFSGSRSGTDFTLTITSLQPEDFATYYCQQYYSFLAKTFGQGTQLEIKR
notes: Fab without FSH, used as the control in the FSHR flow cytometry assay; also called human anti-serum albumin Fab antibody fragment

Kd [2]: 0.359 nM
koff [2]: 0.000136 s⁻¹
kon [2]: 379000 M⁻¹ s⁻¹
Kd [3]: 0.313 nM
koff [3]: 0.000149 s⁻¹
kon [3]: 475000 M⁻¹ s⁻¹
B2: SAFA-FSH-B protein (other)
heavy: QVQLVQSGGGPVKPGGSLRLSCAASGFMFRAYSMNWVRQAPGKGLEWVSSISSSGRYIHYADSVKGRFTISRDNAKNSLYLQMNSLRAEDTAVYYCARETVMAGKALDYWGQGTLVTVSSASTKGPSVFPLAPSSKSTSEGTAALGCLVKDYFPEPVTVSWNSGALTSGVHTFPAVLQSSGLYSLSSVVTVPSSSLGTQTYICNVNHKPSNTKVDKKVEPKSSGGGGSGGGGSGGGGSNSCELTNITIAIEKEECRFCISINTTWCAGYCYTRDLVYKDPARPKIQKTCTFKELVYETVRVPGCAHHADSLYTYPVATQCHCGKCDSDSTDCTVRGLGPSYCSFGEMKE
light: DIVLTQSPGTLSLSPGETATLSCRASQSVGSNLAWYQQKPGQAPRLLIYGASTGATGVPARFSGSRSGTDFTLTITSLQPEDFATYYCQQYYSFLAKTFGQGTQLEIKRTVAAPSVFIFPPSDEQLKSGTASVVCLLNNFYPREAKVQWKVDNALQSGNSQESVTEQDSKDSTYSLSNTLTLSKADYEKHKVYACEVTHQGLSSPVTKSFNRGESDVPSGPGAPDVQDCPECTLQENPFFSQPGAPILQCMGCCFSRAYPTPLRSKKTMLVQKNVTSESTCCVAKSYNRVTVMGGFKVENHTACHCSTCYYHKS
notes: Anti-serum-albumin Fab SL335 with hFSH beta on the C-terminus of CH1 and hFSH alpha on the C-terminus of CL; also called SAFA-FSH protein; recombinant fusion protein
